# Source: the nanobody polyreactivity screen of Harvey et al. (2022)
# Assay: yeast display, Sf9 membrane polyspecificity reagent, FACS + sequencing; frameworks hold sequencing errors
# How it was run: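 Polyreactivity labels are assigned by the sorting gate from which each nanobody was recovered. The gates were low and high (top ~1%), set on anti-HA fluorescence for expression and streptavidin fluorescence for reagent binding. Before sorting, galactose-induced (36–48 hours) yeast display cells were stained for 1 hour at 4 °C with 10% biotinylated, detergent-solubilized Sf9 membrane reagent.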
row,Sequence,polyreactivity (PSR sort gate)
1,QVQLVESGGGLVQAGGSLRLSCAASGNIFYINAMGWYRQAPGKERELVAAISSGGRTNYADSVKGRFTISRDNAKNTVYLQMNSLKPEDTAVYYCNADGWYAWRYYAPGGYDYWGQGTQVTVSS,low polyreactivity
2,QVQLVESGGGLVQAGGSLRLSCAASGSIFGYYAMGWYRQAPGKERELVAAISGSGGSTYYADSVKGRFTISRDNAKNTVYLQMNSLKPEDTAVYYCDRVRGGYDKMYYWGQGTQVTVSS,high polyreactivity
3,QVQLVESGGGLVQAGGSLRLSCAASGSTFSYAMGWYRQAPGKERELVAAITTSGGSTYYADSVKGRFTISRDNAKNTVYLQMNSLKPVDTAVDYCARERYYRRFYRPRRYDYWGQGTQVTVSS,low polyreactivity
4,QVQLVESGGGLVQAGGSLRLSCAASGSISGYYAMGWYRQAPGKERELVASIRYTGARTYYADSVKGRFTSSRDNAKNTVYLQMNRLKPEDTAVFYCAADKVQYEGDAYGPPQYDYWGQGTQVTVSS,low polyreactivity
5,QVQLVESGGGLVQAGGSLRLSCAASGRIFDYYAMGWYRQAPGKERELVAAITRGGSTYYADSVKGRFTISRDNAKNTVYLQLNSLNPVDTEVYYCAASIGIRFIKYDYWGQGAQVTVSS,high polyreactivity
6,QVQLVESGGGLVQAGGSLRLSCAASGSNFETYVMGWYRQAPGKERELFAAINSGGSTNYADSVKGRFTISRDNAKNTVYLQMNSLKPEETAVYYCNADWFTPAQPWYRYFIRYDYWGQGSQVTVSS,low polyreactivity
7,QVQLVESGGGLVQAGGSLRLSCAASGITFYGYAMGWYRQAPGKERELVAAISRSGGSTYYADSVKGRFTISRDHAKNTVYVQMNSLKPEDTAVYYCNTDYGSSYNYWGQGTQVTVSS,high polyreactivity
8,QVQLVESGGGLVQAGGSLRLTCAASGFIFAHYAMGWYRQAPGKERELVAAISSRGGSTYYADSVKGRFTISRDNAKNTVYLQMNSLKPEDTAVYYCAKARHRPARGYEYWGQGTQVTVSS,high polyreactivity
9,QVQLVESGGGLVQAGGSLRLSCAASGITLDRYAMGWYRQAPGKERELVAAISRSTTSTYYADSVKGRFTISRDNAKNTVYLQMNSLKREDTAVYYCATRTYRVDPEYGYWGQGTQVTVSS,high polyreactivity
10,QGQLVESGGGLVQAGGSLRLSGAASGRTFRCNAMGWYRQAPGKERELVAAITSSGGRTYYADSVNGRFTISRDNAKNTVYLQMNSLKPEDTAVYYCAADAYQRGSGRYYEYDYWGQGTQVTVSS,high polyreactivity
11,QVQLVESGGGLVQAGGSLRLSCAASGSTFLSYAMGWYRQAPGKERELVATINRGGSTYYADSVKGRFTISRDNAKNTVYLQMNSLKPEDTAVYYCAKANKRGRYNYWGQGTQVTVSS,high polyreactivity
12,QVQLVESGGGLVHAGGSHRLSCAASGLIFRRNPMGWYRQAPGKERELVAAISRTGGSTYYADSVKGSFTISRDNAKNTFYLQMNSMKPEYTAVYYCASDNRDYDYTYEYWGQGTQVTVSS,low polyreactivity
13,QVQLLESGGGLVQAGGSLRLSCAASGSTFWWNTMGWYRQAPGKERELVADIRPSGGGTYYADSVKGRFTISRDNAKNTVYLPMHSLKPEATAVYYCNADPKWEMGSWGQGTQVTVSS,low polyreactivity
14,QVQLVESGGGLVQAGGSLRLSCAASGSIFYINAMGWYRQAPGKERELVASISGGGGSTYYADSVKGRFTISRDNAKNTVYLQMNSLKPEDTAVYYCAARYRVYYLAGYEYWGQGTQVTVSS,high polyreactivity
15,QVQLVESGGGLVQAGGSLRLSCAASGSTFVYYDMGWFRQAPGKERELVASISWSGGSTRYADSVKGRFTISRDNAKNTVYLQMNSLKPEDTAVYYCNKSNPDYDGLAIHAFDYWGQGTQVTVSS,low polyreactivity
16,QVQLVESGGGLVQAGGSLRLSCAASGFTFNRTAMGWYRQAPGKERELVAAITRRGGSTYYADSVKGRFTISRDNAKNTVYLQMNSLKPEDTAVYYCAARRGAGDGYWGQGTQVTVSS,high polyreactivity
17,QVQLVESGGGLVQAGGSLRLSCAASGSILGYYVMGWYRQAPGKERELVAAISWSSGSTYYADSVKGRFTISRDNAKNTVYLQLNSLKPEDTAVYYCNASNVYFWFVTLEFDSWGQGTQVTVSS,low polyreactivity
18,QVQLVESGGGLVQAGGSLRLSCAASGRTFYGNAMGWYRQAPGKERELVAGITRGGSTYYADSVKGRFTISRDNAKNTVYLQMNSLKPEDTAVYYCAATRYYSWGSRGGYWGQGTQVTVSS,high polyreactivity
19,QVQLVESGGGLVQAGCSRRLSCAASGSIFYHNAMGWYRQAPGKERELVAAISGRGGSTYYADSVKGRFTISRDNAKNTVYLQMNSLKPEDTAVYYCAADARYQNGGLYYWGQGPQVTVSS,high polyreactivity
20,QVQIVESGGGLVQAVGSLRLSCAAYGSTFCANAMGCYRQAPGKERELVAAIRGTGGSTYADSVKGRFTISRDNAKNTVYLQMNSLKPEDTAVYYCNAKGRGWTAQYDYCGQGTQVTVSS,low polyreactivity
21,QVQLQESGGGLVQAGGSLLLSCAASGTICDSGLMGWYRQAPGKERELVDVISSGGITNYADSVKGRYTISRDNAKNTVYMQMNSLKPEDTAVYWGQGPQVTVSS,low polyreactivity
22,QVQLVESGGGLVQAGGSLRLSCAASGRTFGFYAMGWYRQAPGKERELVATISSSGGSTYYADSVKGRYTISRDNAKNTVYIQMNSLKPEDTAVYYCAKVVSGWRSHYIGDYWGQGTQVTVSS,low polyreactivity

row,Sequence,polyreactivity (PSR sort gate)
1,QVQLVESGGGLVQAGGSLRLSCAASGRTFSPYMGWYRQAPGKERELVAAISKSGGRTYYADSVKGRFTISRDNAKNTVYLQMNSLKPEDTAVYYCANTGNNYYYALYGYWGQGTQVTVSS,low polyreactivity
2,QVQLEESGGGLVQAGGSLRLSCAASGITFPRYAMGWYRQAPGKERELVAAIRWNGGSTYYADSVKGRFTISRDNAKNTVYLQMNSLKPEDTAVYYCAARKDPSFSSFGYGYWGQGTQVTVSS,high polyreactivity
3,QVQLVESGGGLVHAGGSLRLSCAASGRIFYPYTMGWYRQAPGKERELVAAISIRGTSTYYADSVKGRFTISRDNAKNTVYLQMNSLKPEDTAVYYCAALYVGYDYWGQGTQVTVSS,high polyreactivity
4,QVQLVESGGGLVQAGGSLRLSCAASGRIFVIYGMGWYRQAPGKERELVAAIRWTGGSTYFADSVKGRFTISRDNAKNTVYLQMNSLKPEDTAVYYCNAGSDRAIWPTHDYWGQGTQVTVSS,low polyreactivity
5,QVQHVESGGGLVQAGGSLRLSCAASGFTFWYYDMGWSRQAPGKERELVAAITNGGRTYYADSVKGRFTISRDNAKNTVYLQMNSLKPEDTAVYYCAAGRWRSGRAEDYWGQGTQVTVSS,high polyreactivity
6,EVQLVESGGGLVQPGGSLRLSCAASGYIYSRYRMGWYRQAPGKGREFVAAISGGSSTNYADSVKGRFTSSRDNSKNTVYLQMNSLRAEDTAVYYCAAYKIDSDQRVYWGQGTQVTVSS,low polyreactivity
7,QVQLVESGGGLVQAGGSLRLSCAASGITFYFYAMGWYRQAPGKERELVASITSSGSTDYADSVKGRFTISRDNAKNTVYLQMNSLKPEDTAVSYCAADVQKHFYSFGDERGFPFDYWGQGTQVTVSS,low polyreactivity
8,QDQLVESRGGLVQAGGSLRLSCAASGFTFYRYAMGWYRQAPGKERELVAAITWRGTSTYYADSVKGRFTISRDNAKNTVYLQMNSLKPEDTAVYYCNADRGYKYDYWGQGTQVTVSS,high polyreactivity
9,QVQLVESWGALVQAGGSLRLSCAASGSTFGSNAMGWYRQAPGKERELVAAITYSGGRTYYADSVKGRFTISRDNAKNTVYLQMNSLTPEDTAVYYCAATFGFFYYQYDYWGQGTQVTVSS,low polyreactivity
10,QVQLVESGGGLVQAGGSLRLSCAASGSTFSKYVMGWYRQATGKERELVAAISGGDRTYYADSVKGRFTISRDNAKNTVYLQMNSLKPEDTAVYYCAAEVLKTRWSYDYWGQGTQVTVSS,high polyreactivity
11,QVQLEESGGGLVQAGGSLRLSCAASGFIFYWYAMGWYIKAPGKERELVAAITRSGGRTYYADSVKGRFTFSRDNAKNTVYLQMNRLKPEDTAVYYCNAGYWLSPYKFGYWGQGTQVTVSS,high polyreactivity
12,QVQLVESGGGLVQAGGSLRLSCAAYGRIFRYNAMGWSTQAPGKERELVAAISRGGSSTYYADSVKGRFTISRDNAKNTVYLQMNSLQPEDTAVYYCNARSVVREFNNWGQGTQVTVSS,high polyreactivity
13,QVQLQEGGGGLVQAGGSLRLSCAASGYISYGDVMGWYRQAPGEERELVASIGLDATTNYADSVKGRFTISRDNAKITVYLQMNSLKPEDTAVYYCAADVGSGVLCGYWGQGTQMTVSS,high polyreactivity
14,QVQLVESGGGLVQARGSLRLSCAASGSTFTRYGMGWYRQAPGKERELVAAITTSGSSTYYADSVKGRFTISRDNAKNTVYLQMNSLKPEDTAVYYCAADWSSWGFDYWGQGTQVTLSS,low polyreactivity
15,QVQLVESGGGLVQAGGSLRLTCAASGSTFLGYAMGWYRQAPGKERELVAAINLSTSGTYYADSVKGRFTISRDNAKNTVYLQMNSLKPEDTAVYYCAAAYSNINYYYQYYYWGQGTQVTVSS,low polyreactivity
16,QVHLVESGGGLVQAGGSLRLSCAASGLTFWAYTLGWYRQAPGQERELVAAITSSGGRTYYADSVKGRFTISRDNAKNTVYLQMNSLKPEDTGVYYCNARIFRSPTPYDYWGQGTQVTVSS,high polyreactivity
17,QVQLVESGGGLVQAGGSLRLSCAASGSTFPKYAMGWYRQAPGKERELVALITSSTGTTYYADSVKGRFTISRDNAKNTVYLQMNSLKPEDTAVYYCNARVRYREWGLYYWGQGTQVTVSS,high polyreactivity
18,QVQLVESGGGLVQAGGSLRLSCAASGFIFNYYTMGWYRQAPGKEREFVAAIRRSGTRTYYADSVKGRFTISRDNAKNTVYLQMNSLKPEDTAVYYCAARGTSPGHGTYTRTRGQRYYYWGQGTQVTVSS,high polyreactivity
19,QVQLVESGGGLVQAGGSLRLSCAASGRTFRKYAMGWYRQAPGKERELVAAISWSGGSTYYANSVKGRFTISRDNAKNTVYLQMNSLKPEDTAVYYCAAVPVHTGSLYWGFTTGYDYWGQGTQVTVSS,low polyreactivity
20,QVQLVESGGGLVQAGGSLRLSCAASGNIFGKNVMGWYRQAPGKEREFVAAITSRGGRTNYADSVKGRFTISRDNAKNTVYLQMNSLKPEDTAVYYCAKDKNYPSGYGYWGQGTQVTVSS,high polyreactivity
21,QVQLVESGGGLVQAGGSRRLSCAASGRSFTRYAMGWYRQAPGKERVLVAAITSSGRTYYADSVKGRFTISRDNAKNTVYLQMNRLKPEDTAVYYCAKYRANALNYANRGAGDYWGQGTQVTVSS,high polyreactivity
